The target in the assay is Recombinant SARS-CoV-2 S trimer protein (ACRO Biosystems SPN-C52H9) (SARS-CoV-2, UniProt P0DTC2). Put plainly: SPR.

B1: KIH format bivalent MW01 (MW01/KIH) (antibody, V domains shown)
VH: EVQLVQSGAEVKKPGSSVKVSCKASGGTFSSFSISWVRQAPGQGLEWMGRIIPVLGIANYAQEVQGRVTITADKSTSTAYMELSSLRSEDTAVYFCTTDRFVEPATGPFFDYWGQGTLVTVSS
VL: EIVMTQSPATLSVSPGERATLSCRASQSVSSNLAWYQQKPGQAPRLLIYGASTRATGIPARFSGSGSGTEFTLTISSLQSEDFAVYYCQQYSNWLTFGGGTKVEIK
The koff is the first-order rate constant of dissociation. Consider B1, for which the koff was found to be 0.000408 s⁻¹.

For the origin of these results see paper PMC8948278 (2022).
